Laboratory results: the DeepSol protein solubility set

Assay: soluble on expression in E. coli; label from the status in PepcDB or PDB records

Question: With “AIAAIAEKAKGKEWTSTEKSREEDQQASNQPNSIALPGTSAKRTKEKMSVKGSKVLCPKKKAEHTDNPRPQKKIPIPPLPSKLPPVNLIHRDILRAWCQQLKLSSKGQKLDAYKRLCAFAYPNQKDFPSTAKEAKIRKSLQKKLKVEKGETSLQSSETHPPEVALPPVGEPPALENSTALLEGVNTVVVTTSAPEALLASWARISARARTPEAVESPQEASGVRWCVVHGKSLPADTDGWVHLQFHAGQAWVPEKQEGRVSALFLLPASNFPPPHLEDNMLCPKCVHRNKVLIKSLQWE” as the sequence, how does the “soluble on expression in E. coli” value read?
Answer: soluble

Question: For “MGDVSAVSSSGNILLPQQDEVGGLSEALKKAVEKHKTEYSGDKKDRDYGDAFVMHKETALPLLLAAWRHGAPAKSEHHNGNVSGLHHNGKSELRIAEKLLKVTAEKSVGLISAEAKVDKSAALLSSKNRPLESVSGKKLSADLKAVESVSEVTDNATGISDDNIKALPGDNKAIAGEGVRKEGAPLARDVAPARMAAANTGKPEDKDHKKVKDVSQLPLQPTTIADLSQLTGGDEKMPLAAQSKPMMTIFPTADGVKGEDSSLTYRFQRWGNDYSVNIQARQAGEFSLIPSNTQVEHRLHDQWQNGNPQRWHLTRDDQQNPQQQQHRQQSGEEDDA”, which “soluble on expression in E. coli” value is on record?
Answer: not soluble

Question: For “SEMLASLKEHPNELLDLLNSIITDFELAVDDLIENFMQSDFDALKLTMHTTKGMALNLGLKILASQALELETQLKMNQVPAIEQLQMLINRLQVNIHQGHRLRDELVKAQQNSEQVF”, which “soluble on expression in E. coli” value is on record?
Answer: not soluble

Question: With “MEEKQILCVGLVVLDVISLVDKYPKEDSEIRCLSQRWQRGGNASNSCTVLSLLGAPCAFMGSMAPGHVADFLVADFRRRGVDVSQVAWQSKGDTPSSCCIINNSNGNRTIVLHDTSLPDVSATDFEKVDLTQFKWIHIEGRNASEQVKMLQRIDAHNTRQPPEQKIRVSVEVEKPREELFQLFGYGDVVFVSKDVAKHLGFQSAEEALRGLYGRVRKGAVLVCAWAEEGADALGPDGKLLHSDAFPPPRVVDTLGAGDTFNASVIFSLSQGRSVQEALRFGCQVAGKKCGLQGFDGIV” as the sequence, how does the “soluble on expression in E. coli” value read?
Answer: soluble

Question: For “VLPHARKVARETGIPEHFMIAQAALETGWGRHQIRRADNQPSFNLFGIKASGNWRGGVVETVTTEYVDGKPQKLREKFRTYDSYEDAFRDYAKLLQNNPRYAAVLKSRSATAFAWGLQQAGYATDPSYAEKLLKIINSDALSI”, which “soluble on expression in E. coli” value is on record?
Answer: not soluble

Question: With “MIQKTISETSPPPMFSDEEILTEDEIEEYLDNLKSKLPSFVIILLKNNLRGKRVTKKQLDKIVERITEVLSKGRRDDKTEELNKKLQTLEQKLDAIMKLTTMAVSTKTSEEIEKIKTNEKIEIENAPIKIKSEEKPEKPVEIEVSKKKETMDTGKKTETEEKVKEIEVPKPVEKTHEKVEETKTKGEIKKEVKKEVKLKKYELPKESPMGGSFMTPIEEEKEYRLNDIPEDAVSMTLVFKWLEFLISRGGMTYLPDILDYYNKIGWISNRVILKLLRFAKNMKITFDEEELRPRDKLSPSDHIVSLLYIEKLAGRPIDSEILEMLEIEIRRIKKWAIELQSI” as the sequence, how does the “soluble on expression in E. coli” value read?
Answer: not soluble

Question: For “MVAQNSVVVIGASGFGRESLDVLEAMKEAGHSLEIIGVVDDNPAAINLQRLAERKIEYLGTLKEWIEGSPKSCKYVLAIGNPTIRHKLSALLDKSGFDAFTAVHPSAVIGSQVVFGSGAVVCSGAVISTNVRLGVHVHINPNVTIGHDSILEDYVSINPAATISGEVLIMEETLIGAAATVLQGLTIGNRSLVGASSCVTKDISAGKVVKGIPARLEHHHHHH”, which “soluble on expression in E. coli” value is on record?
Answer: soluble

Question: Which “soluble on expression in E. coli” value does the source give for “MGSDKIHHHHHHMPRKPIPALPPLDWLRSFEAAARLSNFTAAAAELGLTQAAVSQHIRLLEERLKTRLFSRLARGVALSPEGAAYLPHIQSAFATISSSTTELFEPRAVQTVSIRVPISFALLILVPALPDLAEALPRIQLDLVTIHRPTDYDLPGSALDIRFGNGSFPGREAGRLTAERLVPVASPALAGAADWTALPLLLVAGAREMWAEWFAAAGLAGHPQRSHRFDSFVAAMEAASAGAGVLLGSRPLVDAALRNRTLVPLSDFELSSSSGHFLTSASTARLTSAEQDFRQWLLGHLSRKAPA” here?
Answer: not soluble

Question: For “STEESMYTQIIKELPREGSSDVLVIKNEHVKKSDIWPSGGEMVVKDLTVKYMDDGNAVLENISFSISPGQRVGLLGRTGSGKSTLLSAFLRMLNIKGDIEIDGVSWNSVTLQEWRKAFGVITQKVFIFSGTFRQNLDPNGKWKDEEIWKVADEVGLKSVIEQFPGQLNFTLVDGGYVLSHGHKQLMCLARSVLSKAKIILLDQPSAHLDPITYQVIRRVLKQAFAGCTVILCEHRIEAMLDCQRFLVIEESNVWQYDSLQALLSEKSIFQQAISSSEKMRFFQGRHSSKHKPRTQITALKEETEEEVQETRL”, which “soluble on expression in E. coli” value is on record?
Answer: not soluble

Question: Which “soluble on expression in E. coli” value does the source give for “MGSDKIHHHHHHMKYLKQYMIIGAVTMITSCSDFLDTAPLDALSPATTWKTEDDAQKFAIGCYGGNNYDTSSWEDGGNILYLDCGSDFGYNNFEWENYKTIGNGTMTPSGAVASFYDFSVIRRCNTFLEKVKEIPFSNEQTKNDLIGQVRTIRAYRYFVMNWWYGGVPVIDNYNSADEAKVPRKSEEEVKNYVNTELDTAIGELNASPSERGRIAKGAAMAIRMRSALYYGDYVKAKEMAEAIMNLKQYDLEPDYSNLFKVAGQDSKEIILAVQYVNSTLELGTIGQMYNNGDGGWSSIVPTQNLVDTYEMADGLTKEESGSYDPNHPFAGRDPRMAMTIIYPGMDWNGTVVNTLDKTINGKDNANYPPSANNASKTALTWRKYLDEQYANGIWNTNACPIVIRYAEVLLTYAEAVNELSGPSADVYDKLDLIRGRVGMPKVDREKYASKETLRRLIRRERGVELAGEGVRRADILRWKDDNGKMVAETVLNGVLERVVGTVNYAETDPTKRAEIDTNAPATDKKIEDRVFKVHNRYNPIPQGAIDNNPNLEQNPGY” here?
Answer: not soluble

Question: With “MSLKLPDEEFKLALEVARARIKAKDKFSRSDLWFDLEGLRYATHEVVADYRGRRLKGQGVKSIADVSCGVGIQLIFFAKHGIRSVGIDIDPIKIEFAKRNAEKYGVEVEWVVGDALSPEIIEKVDAEVIFSDPARPPEVPERNLEDLLPSPLKIYEAYKHKTDSFIFDLPPQIRREKVPWKGEFEYIDLFGHVNRLTEGHHHHHH” as the sequence, how does the “soluble on expression in E. coli” value read?
Answer: not soluble

Question: Which “soluble on expression in E. coli” value does the source give for “MSSKMVKSSEIVGKLNLRAHQEGGFFAETFRDSSVFLSTSQLPPTFKVDRAVSTSIYFLLPSGSVSRLHRIPMAETWHFYLGEPLTVVELYDDGKLKFTCLGPDLFEGDQKPQYTVPPNVWFGSFPTKDVHFSQDGALLKAEARDSENHFSLVGCTCAPAFQFEDFELAKRSDLLSRFPQHESLITMLSYPE” here?
Answer: soluble

Question: With “MLKKYLISLDKDIQRRELFFSQKNTEDFQVFSAINTMQKDWDELAAIFNIEQFKAHYFRNVTKGEIGCTLSHLSVYQKIVEDNDIAEDSYALVCEDDALFHSDFQQNLTALLSEKLEAEIILLGQSKINDFNDFDLEINYPTTFSFLCKKTGDVNYAFPYKSYFAGTVGYLIKKSAARRFIQQISQNKPFWLADDFLLFEQNFNIRNKVVRPLIVIENPVLISNLESVRGSLSNNLLKKLMKYPLKKIFAIKKNLAN” as the sequence, how does the “soluble on expression in E. coli” value read?
Answer: soluble

Question: Which “soluble on expression in E. coli” value does the source give for “MALETPTPGPPREGQSPASQAGTQHPPAQATAHSQSSPEFKGSLASLSDSLGVSVMATDQDSYSTSSTEEELEQFSSPSVKKKPSMILGKARHRLSFASFSSMFHAFLSNNRKLYKKVVELAQDKGSYFGSLVQDYKVYSLEMMARQTSSTEMLQEIRTMMTQLKSYLLQSTELKALVDPALHSEEELEAIVESALYKCVLKPLKEAINSCLHQIHSKDGSLQQLKENQLVILATTTTDLGVTTSVPEVPMMEKILQKFTSMHKAYSPEKKISILLKTCKLIYDSMALGNPGKPYGADDFLPVLMYVLARSNLTEMLLNVEYMMELMDPALQLGEGSYYLTTTYGALEHIKSYDKITVTRQLSVEVQDSIHRWERRRTLNKARASRSSVQDFICVSYLEPEQQARTLASRADTQAQALCAQCAEKFAVERPQAHRLFVLVDGRCFQLADDALPHCIKGYLLRSEPKRDFHFVYRPLDGGGGGGGSPPCLVVREPNFL” here?
Answer: soluble

Question: With “SEQHAQGADAVVDLNNELKTRREKLANLREQGIAFPNDFRRDHTSDQLHAEFDGKENEELEALNIEVAVAGRMMTRRIMGKASFVTLQDVGGRIQLYVARDDLPEGVYNEQFKKWDLGDILGAKGKLFKTKTGELSIHCTELRLLTKALRPLPDKFHGLQDQEARYRQRYLDLISNDESRNTFKVRSQILSGIRQFMVNRGFMEVETPMMQVIPGGAAARPFITHHNALDLDMYLRIAPELYLKRLVVGGFERVFEINRNFRNEGISVRHNPEFTMMELYMAYADYKDLIELTESLFRTLAQDILGKTEVTYGDVTLDFGKPFEKLTMREAIKKYRPETDMADLDNFDSAKAIAESIGIHVEKSWGLGRIVTEIFEEVAEAHLIQPTFITEYPAEVSPLARRNDVNPEITDRFEFFIGGREIGNGFSELNDAEDQAQRFLDQVAAKDAGDDEAMFYDEDYVTALEHGLPPTAGLGIGIDRMVMLFTNSHTIRDVILFPAMRPVK” as the sequence, how does the “soluble on expression in E. coli” value read?
Answer: soluble

Question: With “MGKLIDIPIVVESGQKYKTSQGVTAIKDGIKSSGQDHERLPKPKWLRIVNHTTPAYSQVKEQVQKHRLATVCEEAKCPNISECWSHGTATIMLMGAVCTRACRFCSVDTGNPHGWLDAEEPENTAETVALMNLDYVVLTSVNRDDLPDGGANHYAKTIRAIKKRSPRTKVEALTPDFQGSERDVAVLLDSGVDVFAQNVETVERLTHPVRDNRAGYQQTLNVLAFAKKYRPDVLTKTSLMLGLGETDEEIIQTMDDLRTHHVDILTLGQYLQPTKNHLPIARYVTPETFSELRQIGLKKGFFEVASGPLVRSSYRADRVFKRDNLGLDV” as the sequence, how does the “soluble on expression in E. coli” value read?
Answer: not soluble

Question: With “MGSDKIHHHHHHMRNPEVIVIGSGIGGLCCGGLLAKAGKRVLILEAHSKPGGAAHGFEKNGYKFESGPSLWSGIGSWPTTNPLGQVLKALNQKVDLIKYQDWNVQIPEGDYTIGVGDRRFLDQINSISGKDAMKEWENFIQVIKPIGAAANAIPLLALNQNKETVLQLLKRSKTLLTHLKSFKYLGGAFGNLVDDHLKDPFLRNWVELLCFLISGLSKDETNAAAMATLFDDWFNPDAYLEYPKGGSESIVKALLDGIYSFGGDLQLNSKVSQIIIKRNKAIGIELKNGERIFADHIVSNADIWNTIELIPKEISQKWRGKRSKTPKCKSFLHLHLGFNAEGLKDIPLHSIWVNDWSKGITAERNVVVLSIPSALDPTMSPPNKHILHGYTPANEPWERWEGLKIGSKEYERTKEERCSVFWEPIKKLVPDIEERIEVKMLGTPLTHQRFLNTKNGSYGPALSAAEGLFPGNKTPIKNLLLCGSSTFPGIGIPPVAASGAMAANTILGSKFQRDLIEELGL” as the sequence, how does the “soluble on expression in E. coli” value read?
Answer: not soluble

Question: For “MSVRATVVKRTISGGKGKISEYCDGTKAVFHYQALFPIEKHEKGQPLSLEKDAFKSIDDTRKPWPHGYGKPLEIVFGKKFQLPVFEQCLKTMLVDEISQFDVECIDLVQYPFVSKKLRDLVKPCDGKHSHAHTTHMCAASIAQGTGYEELDELMKNPRPLRFVFHLLQVFEPDQYVHDSWQLDEDDKLKSVEALRQKGNELFVQKDYKEAIDAYRDALTRLDTLILREKPGEPEWVELDRKNIPLYANMSQCYLNIGDLHEAEETSSEVLKREETNEKALFRRAKARIAAWKLDEAEEDLKLLLRNHPAAASVVAREMKIVTERRAEKKADSRVTYSKMFQP”, which “soluble on expression in E. coli” value is on record?
Answer: not soluble

Question: For “MKWTVQQLRRFQHKEMAIDETVDVSDLKQIDTLIRDISPVHVQGKADVGSTKFTFHLTLSGTMVLPCSRTLVDVAYPFSIQTTETFFADGSGIVETDEDTHMVAGDTIDLNPIIRELILLEIPLQLIAEGPVAGGAPQHGEGWDVLSEEEWEKAMQEREKKVDPRLAGLAKFFEEKREE”, which “soluble on expression in E. coli” value is on record?
Answer: not soluble

Question: Which “soluble on expression in E. coli” value does the source give for “MQTKKAFLYVFNTMSDWEYGYLIAELNSGRYFKKDLAPLKVITVGANKEMITTMGGLRIKPDISLDECTLESKDLLILPGGTTWSEEIHQPILERIGQALKIGTIVAAICGATDALANMGYLDTRKHTSNNLEYTKMVCPNYKGEKFYELGPAVSDANLVTASGIAPLEFAMEVLKKIDVFTLDALHSWYNLNKTHKPEYFFQLMNSINK” here?
Answer: not soluble
